{"source": "the RNAGym collection of RNA variant scans (doi:10.7554/elife.80360)", "parents": {"B1": {"name": "Twister Ribozyme (parent)", "chain": "AACACUGCCAAUGCCGGUCCCAAGCCCGGAUAAAAGUGGAGGGGGCGG"}}, "data": [{"variants_of": "B1", "assay": "self-cleavage, relative activity (ratio to wild type); higher = more cleavage; co-transcriptional", "values": [{"variant": "A4C A32G", "self-cleavage": 0.146}, {"variant": "A4G G29A", "self-cleavage": 0.819}, {"variant": "C3U A30U", "self-cleavage": 0.397}, {"variant": "C5A A10C", "self-cleavage": 0.722}, {"variant": "A4C A11G", "self-cleavage": 0.193}, {"variant": "A4G A23G", "self-cleavage": 0.384}, {"variant": "A4U C14G", "self-cleavage": 0.0594}, {"variant": "A4U C14U", "self-cleavage": 0.13}, {"variant": "A4U C14A", "self-cleavage": 0.225}, {"variant": "C3U U37A", "self-cleavage": 0.533}, {"variant": "C3U G42C", "self-cleavage": 0.159}, {"variant": "A4G A22U", "self-cleavage": 0.69}, {"variant": "A4G A22C", "self-cleavage": 1.01}, {"variant": "A4G A22G", "self-cleavage": 0.0987}, {"variant": "C5A C14A", "self-cleavage": 0.593}, {"variant": "C5A C14U", "self-cleavage": 0.668}, {"variant": "A4U U37C", "self-cleavage": 0.022}, {"variant": "C3G G41U", "self-cleavage": 0.142}, {"variant": "C3U G45A", "self-cleavage": 0.422}, {"variant": "C3U G45C", "self-cleavage": 0.179}, {"variant": "C3U G45U", "self-cleavage": 0.338}, {"variant": "A4U C8U", "self-cleavage": 0.0539}, {"variant": "A4U C8G", "self-cleavage": 0.13}, {"variant": "C5A C8A", "self-cleavage": 0.133}, {"variant": "C5A C8U", "self-cleavage": 0.335}, {"variant": "C3U A11G", "self-cleavage": 0.438}, {"variant": "C3U A11U", "self-cleavage": 0.428}, {"variant": "C3U A11C", "self-cleavage": 0.191}, {"variant": "C3U A40G", "self-cleavage": 0.0544}, {"variant": "C3U A40U", "self-cleavage": 0.0995}, {"variant": "C5A G24C", "self-cleavage": 0.0665}, {"variant": "A4U C20A", "self-cleavage": 0.0537}, {"variant": "A4U C27A", "self-cleavage": 0.0441}, {"variant": "A4G C20A", "self-cleavage": 0.14}, {"variant": "A4G C20U", "self-cleavage": 1.06}, {"variant": "A4G U18A", "self-cleavage": 0.364}, {"variant": "A4G C19U", "self-cleavage": 0.887}, {"variant": "A4G C19G", "self-cleavage": 0.166}, {"variant": "A4G C19A", "self-cleavage": 0.0929}, {"variant": "C5A A34U", "self-cleavage": 0.182}, {"variant": "C5A A34C", "self-cleavage": 0.119}, {"variant": "A4C C5A", "self-cleavage": 0.0937}, {"variant": "A4U G24A", "self-cleavage": 0.0658}, {"variant": "A4U G24C", "self-cleavage": 0.0697}, {"variant": "C3U C15A", "self-cleavage": 0.195}, {"variant": "A4U U12G", "self-cleavage": 0.168}, {"variant": "A4U U12C", "self-cleavage": 0.0758}, {"variant": "A4U U12A", "self-cleavage": 0.0897}, {"variant": "C5A A11U", "self-cleavage": 0.351}, {"variant": "C5A A11C", "self-cleavage": 0.169}, {"variant": "C3U G24U", "self-cleavage": 0.0933}, {"variant": "C3U G24C", "self-cleavage": 0.0842}, {"variant": "A4C G42U", "self-cleavage": 0.0422}, {"variant": "A4C G42C", "self-cleavage": 0.125}, {"variant": "C3U C20U", "self-cleavage": 0.308}, {"variant": "A4U U6A", "self-cleavage": 0.0622}, {"variant": "A4C U37C", "self-cleavage": 0.122}, {"variant": "A4C U37G", "self-cleavage": 0.623}, {"variant": "A4C U37A", "self-cleavage": 0.766}, {"variant": "C5A G17C", "self-cleavage": 0.0425}, {"variant": "C3G G43C", "self-cleavage": 0.101}, {"variant": "C3G G43A", "self-cleavage": 0.12}, {"variant": "C3G G43U", "self-cleavage": 0.124}, {"variant": "C3G U37G", "self-cleavage": 0.478}, {"variant": "C3G U37A", "self-cleavage": 0.421}, {"variant": "C3G U37C", "self-cleavage": 0.18}, {"variant": "C5A C46A", "self-cleavage": 0.652}, {"variant": "C5A C46U", "self-cleavage": 0.681}, {"variant": "A4U A30U", "self-cleavage": 0.11}, {"variant": "A4C G13C", "self-cleavage": 0.0474}, {"variant": "A4C G13U", "self-cleavage": 0.072}, {"variant": "A4C G13A", "self-cleavage": 0.0606}, {"variant": "A4U G28C", "self-cleavage": 0.0611}, {"variant": "A4U G28U", "self-cleavage": 0.116}, {"variant": "A4G G7U", "self-cleavage": 0.052}, {"variant": "C3U U12C", "self-cleavage": 0.39}, {"variant": "C3U U12A", "self-cleavage": 0.41}, {"variant": "C3U U12G", "self-cleavage": 0.391}, {"variant": "A4C U31C", "self-cleavage": 0.249}, {"variant": "A4C C14G", "self-cleavage": 0.0948}, {"variant": "C3U A35U", "self-cleavage": 0.421}, {"variant": "C3U A35C", "self-cleavage": 0.493}, {"variant": "A4G G43C", "self-cleavage": 0.168}, {"variant": "A4G G43U", "self-cleavage": 0.233}, {"variant": "A4G G43A", "self-cleavage": 0.165}, {"variant": "A4U C15G", "self-cleavage": 0.0221}, {"variant": "A4U C15U", "self-cleavage": 0.124}, {"variant": "C3G G39U", "self-cleavage": 0.107}, {"variant": "A4C G45A", "self-cleavage": 0.145}, {"variant": "A4C G45C", "self-cleavage": 0.16}, {"variant": "A4C G45U", "self-cleavage": 0.0976}, {"variant": "C3G G47C", "self-cleavage": 0.149}, {"variant": "A4G A35C", "self-cleavage": 0.865}, {"variant": "A4G A35G", "self-cleavage": 0.525}, {"variant": "A4G A35U", "self-cleavage": 0.844}, {"variant": "C3U A4U", "self-cleavage": 0.12}, {"variant": "C3U A4C", "self-cleavage": 0.106}, {"variant": "A4C G24U", "self-cleavage": 0.0584}, {"variant": "A4C G24C", "self-cleavage": 0.078}, {"variant": "A4C G24A", "self-cleavage": 0.0887}, {"variant": "A4C C19U", "self-cleavage": 0.0705}, {"variant": "A4C C19G", "self-cleavage": 0.0582}, {"variant": "A4C C19A", "self-cleavage": 0.0783}, {"variant": "A4U G36C", "self-cleavage": 0.0838}, {"variant": "C5A C20A", "self-cleavage": 0.0707}, {"variant": "C5A C20G", "self-cleavage": 0.0697}, {"variant": "A4C C25U", "self-cleavage": 0.058}, {"variant": "C3U G41U", "self-cleavage": 0.14}, {"variant": "A4U G39A", "self-cleavage": 0.0691}, {"variant": "A4U A34C", "self-cleavage": 0.057}, {"variant": "A4U A34U", "self-cleavage": 0.068}, {"variant": "C3U G29A", "self-cleavage": 0.32}, {"variant": "A4C G28A", "self-cleavage": 0.12}, {"variant": "A4G G42C", "self-cleavage": 0.186}, {"variant": "A4C U6A", "self-cleavage": 0.0472}, {"variant": "C3U C46A", "self-cleavage": 0.338}, {"variant": "A4G G45A", "self-cleavage": 0.955}, {"variant": "A4U A32C", "self-cleavage": 0.1}, {"variant": "A4U A32U", "self-cleavage": 0.0867}, {"variant": "A4U A32G", "self-cleavage": 0.0833}, {"variant": "A4G G17U", "self-cleavage": 0.0875}, {"variant": "A4G G17A", "self-cleavage": 0.473}, {"variant": "C5A C19G", "self-cleavage": 0.0385}, {"variant": "A4C A30G", "self-cleavage": 0.163}, {"variant": "A4C A30U", "self-cleavage": 0.189}, {"variant": "A4G G24U", "self-cleavage": 0.12}, {"variant": "A4G U37C", "self-cleavage": 0.99}, {"variant": "C5A G29A", "self-cleavage": 0.362}, {"variant": "A4G", "self-cleavage": 1}, {"variant": "A4C", "self-cleavage": 0.218}, {"variant": "A4U", "self-cleavage": 0.136}, {"variant": "C3U G48A", "self-cleavage": 0.381}, {"variant": "C3U G48C", "self-cleavage": 0.484}, {"variant": "C3U C25U", "self-cleavage": 0.238}, {"variant": "C3G U31A", "self-cleavage": 0.57}, {"variant": "C3G U31C", "self-cleavage": 0.347}, {"variant": "A4U G7U", "self-cleavage": 0.0685}, {"variant": "C3U G28A", "self-cleavage": 0.409}, {"variant": "C3U G28C", "self-cleavage": 0.167}, {"variant": "A4G G41U", "self-cleavage": 0.405}, {"variant": "A4C A23G", "self-cleavage": 0.0448}, {"variant": "A4G U31G", "self-cleavage": 0.759}, {"variant": "A4G U31A", "self-cleavage": 0.604}, {"variant": "A4G U31C", "self-cleavage": 0.886}, {"variant": "C3U A33G", "self-cleavage": 0.361}, {"variant": "A4U C9G", "self-cleavage": 0.0806}, {"variant": "A4C G48U", "self-cleavage": 0.232}, {"variant": "A4G G36C", "self-cleavage": 0.182}, {"variant": "A4G G36U", "self-cleavage": 0.164}, {"variant": "A4U G29A", "self-cleavage": 0.173}, {"variant": "A4G G44U", "self-cleavage": 0.968}, {"variant": "A4G G44C", "self-cleavage": 0.645}, {"variant": "A4C G41C", "self-cleavage": 0.0877}, {"variant": "A4C G41U", "self-cleavage": 0.0895}, {"variant": "A4U G13U", "self-cleavage": 0.0584}, {"variant": "A4U G13C", "self-cleavage": 0.0685}, {"variant": "A4C C9A", "self-cleavage": 0.114}, {"variant": "A4U A33G", "self-cleavage": 0.0639}, {"variant": "A4C G39A", "self-cleavage": 0.101}, {"variant": "A4U C19U", "self-cleavage": 0.0724}, {"variant": "A4U C19G", "self-cleavage": 0.092}, {"variant": "C3U A23U", "self-cleavage": 0.194}, {"variant": "C3U A23G", "self-cleavage": 0.101}, {"variant": "C3U C26U", "self-cleavage": 0.138}, {"variant": "C3U C26G", "self-cleavage": 0.0758}, {"variant": "C5A A40U", "self-cleavage": 0.107}, {"variant": "C5A A40C", "self-cleavage": 0.129}]}]}
